Results: patent publication US20260159583A1 (CHIA TAI TIANQING PHARMACEUTICAL GROUP, published 2026)

Target: T1, human GPRC5D protein (human, UniProt Q9NZD1 1-345)
T1 construct: also called hGPRC5D
Assay: FACS, subclone supernatant on H929 cells
Procedure: An H929 (i.e., NCI-H929) cell suspension at a cell concentration of 3× 10⁵ cells/mL was plated into a 96-well U-bottom plate at 100 μL/well. The subcloned cell culture supernatant was added at 100 μL/well or an equal volume of culture medium (hereinafter referred to as Medium) was added. The mixture was mixed well, and then incubated at 4° C. for 1 h. The cells were washed with PBS containing 2% (by volume) of FBS. An AlexaFluor488-conjugated goat anti-mouse IgG+IgM (H+L) antibody (Jackson Immuno Research, Cat. No.: 115-545-044) was added, and the mixture was incubated at 4° C. for 1 h. The cells were washed with PBS containing 2% (by volume) of FBS and then resuspended. Fluorescence signals were detected on a flow cytometer (Sartorius, IQue3). The binding of the mouse anti-hGPRC5D antibody to H929 cells was analyzed by the mean fluorescence intensity (MFI) of staining.

T1 sequence (Q9NZD1 whole entry): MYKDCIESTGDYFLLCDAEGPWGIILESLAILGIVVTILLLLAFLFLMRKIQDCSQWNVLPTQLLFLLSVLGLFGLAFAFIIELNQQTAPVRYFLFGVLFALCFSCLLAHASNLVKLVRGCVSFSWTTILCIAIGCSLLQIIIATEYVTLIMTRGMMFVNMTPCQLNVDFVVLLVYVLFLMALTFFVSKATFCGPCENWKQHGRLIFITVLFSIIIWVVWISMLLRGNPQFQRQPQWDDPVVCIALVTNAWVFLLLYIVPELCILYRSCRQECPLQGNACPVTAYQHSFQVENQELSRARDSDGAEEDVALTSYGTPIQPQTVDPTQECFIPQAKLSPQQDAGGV

Binder	MFI
mouse anti-hGPRC5D antibody mu-128 (antibody, V domains shown, Tested as subcloned hybridoma culture supernatant) VH: DVQLVESGGGLVQPGGSRKVSCAASGFTFSSFGMHWVRQAPEKGLEWVAYISRGSSTIYYADTVKGRFTISRDNPKNTLFLQMTSLRSEDTAMYYCARSGYGSSSYYFDYWGQGTTLTVSS VL: ENVLTQSPAIMSASPREKVTMTCRASSSIRSSYLHWYQQKSGASPKLWIYSTSNLASGVPARFSGSGSGTSYSLTISSVEAEDAATYYCQQFSGYPLTFGGGTKLEIK	15700 MFI
mouse anti-hGPRC5D antibody mu-169 (antibody, V domains shown, Tested as subcloned hybridoma culture supernatant) VH: EVKLVESGGGLVKPGASLKLSCAASGFTFSNYGMSWVRQTSDKRLEWVASISSGGGRIYYPDNVKGRFTISRENAKNTLYLQMSSLKSEDTALYYCTRHAMDNWGQGTSVIVSS VL: QIVLTQSPAIMSASPGEKVTMTCSASSSVSNMYWYQQKSGTSPKRWIYDTSKLASGVPARFSGSGSGTSYSLTISSMEAEDASTYYCQQWSSNPLTFGAGTTLELK	59300 MFI

The next lines start with the values.

MFI	Binder
12800 MFI	mouse anti-hGPRC5D antibody mu-131 (antibody, V domains shown, Tested as subcloned hybridoma culture supernatant) VH: EVQLQQSGPELVKPGASVKMSCKASGYTFTNYVMHWVKQKPGQGLEWIGYFNPYNDGTNYNEKFKGKATLTSDKSSNTAYMELSSLTSEDSAVYYCARGGVRRYFDVWGAGTTVTVSS VL: DIQMTQSPSSLSASLGERVSLTCRASQDIGSNLNWLQLGPDGTIKRLIYATFSLDSGVPKRFSGSRSGSDYSLTISSLESEDFVDYYCQQYANFPPTFGGGTKLEIK
13200 MFI	mouse anti-hGPRC5D antibody mu-105 (antibody, V domains shown, Tested as subcloned hybridoma culture supernatant) VH: EVQLQQSGPELVKPGASVKMSCKASGYTFTDYYMNWVKQSHGKSLEWIGYIYPNNGGTGYNQRFKGKATLTADKSSSTAYMELRSLTSEDSAVYYCARWGGTRLGYYAMDYWGQGTSVTVSS VL: DIVMTQSQKFMSTSVGDRVSVTCKASQNVGTNVVWYQQKPGQSPKLLIYWASTRHTGVPDRFTGSGSGTDFTLTISNVQSEDLADYFCQQYSRYPYTFGGGTKLEIK
11900 MFI	mouse anti-hGPRC5D antibody mu-89 (antibody, V domains shown, Tested as subcloned hybridoma culture supernatant) VH: EVQLVESGGDLVKPGGSLKLSCAASGFTFSSYGMSWVRQTPDKRLEWVATISSGGSYTYYPDSVKGRFTFSRDNAKNTLYLQMSSLKSEDTAMYYCVRQALRYHMDSWGQGTSVTVSS VL: DIVMTQSQKFMSTSVGDRVSVTCKASQNVGTNVAWYQQKPGQSPKALIYSASYRYSGVPDRFTGSGSGTDFTLTISNVQSEDLADFFCQQYYSYPWTFGGGTKLEIK
